Test results as given in US9605064B2, “Methods and compositions for treatment of skin disorders” (AbbVie Biotechnology Ltd, priority 2006, dated 2017).
Marks after values point to notes of the source that are not given here.

Experiments:
[1] = test system: patients with moderate to severe plaque psoriasis; assay: PGA, 12-week open-label weekly therapy then randomized eow or withdrawal; format: in vivo, human
[2] = test system: patients with moderate to severe psoriasis; assay: PGA, open-label extension of REVEAL; format: in vivo, human; conditions: for PGA “Clear” or “Minimal”: n = 233, ITT, LOCF
Experimental: Laboratory parameters and adverse events were also recorded.

[3] = test system: patients with moderate to severe psoriasis; conditions: in vivo
[4] = test system: patients with moderate to severe chronic plaque psoriasis; assay: Adverse events, 120-week open-label extension study; conditions: 40 mg eow; for Hypercholesterolemia / Increased triglycerides: non-fasting
Experimental: Inclusion criteria included: moderate to severe chronic plaque psoriasis: ≧1 year and affected BSA: ≧5%. Exclusion criteria included prior TNF-antagonist therapy.
PASI responses and PGA scores were analyzed as observed. […] Thus, patients whose dosages increased were counted as non-responders from the time of dosage escalation. Adverse events were collected throughout the 120-week period.

[5] = test system: adult patients with moderate to severe chronic plaque psoriasis; assay: PASI response and loss of adequate response, REVEAL 52-week Phase III trial; format: in vivo, human; conditions: for PASI 100 Response Rates, % Patients: n = 814, ITT, NRI; for Mean Percentage PASI Improvement During Period B: relative to baseline, patients randomized to adalimumab who entered Period B, as observed; for patients with loss of adequate response: Week 33 PASI 75 responders re-randomized to continue adalimumab in period C, by Week 52
Source text: The main inclusion criteria for this study included a clinical diagnosis of psoriasis for ≧6 months and affected body surface area (BSA)≧10% and PASI≧12. The main exclusion criteria included prior use of systemic or biologic anti-TNF therapy. The washout period included two weeks for topical agents and UVB, 4 weeks for PUVA and non-biologic systemic therapies, and 12 weeks for all biologic therapies. The two co-primary endpoints were: • Percentage of patients achieving PASI≧75 at Week 16 • Percentage of patients, among Week 33 PASI≧75 responders, losing an adequate response after Week 33, characterized by: • PASI<50 (relative to baseline) and • At least a 6 point increase in PASI
Period A was double-blind, placebo-controlled, and lasted from weeks 0-16. […] At Week 16 patients who achieved ≧PASI 75 improvement continued into Period B, while those patients having <PASI 75 improvement entered the open label extension (OLE) study (FIG. 7).
Period B was open-label and lasted from Weeks 17-33. […] Patients who achieved ≧PASI 75 response at Week 33 entered Period C.
Period C was a double-blind, placebo-controlled which was held from weeks 34-52.
Various analytical methods were used in the study. Intention-to-treat (ITT) analyses were performed for all randomized patients in Periods A and C. […] Week 24 results from NRI analysis include pooled efficacy outcomes from OLE and Period B. After Week 24, non-overlapping OLE and Period B study visits prevent complete pooling of efficacy outcomes. Continuous variables were analyzed as observed during Period B
The REVEAL study had two independent primary endpoints. The first endpoint was the proportion of patients achieving 75 percent improvement in skin clearance after 16 weeks. The second endpoint was the proportion of patients who lost adequate response through week 52 after stopping treatment with HUMIRA at week 33. Signs of psoriasis were evaluated using the Psoriasis Area and Severity Index (PASI), among other measures. […] At week 52, the start of the OLE period, patients randomized at week 33, as well as patients originally in the placebo group at week 0, were able to enter the OLE period.

[6] = test system: patients with chronic plaque psoriasis; assay: PGA, 16-week open-label Phase IIIb trial after suboptimal response to ETN, MTX or NB-UVB; format: in vivo, human; conditions: week 16
Source text: This 16-week, multicenter, open-label, Phase IIIb trial enrolled patients with chronic plaque psoriasis who were having a suboptimal response to ETN (Physician's Global Assessment [PGA]≧mild with months of therapy, or ≧3 months of therapy and deterioration of efficacy), MTX (PGA≧mild with ≧4 months of therapy), or narrow-band ultraviolet B (NB-UVB) phototherapy (PGA moderate with months of therapy). […] The primary endpoint was the proportion of patients who achieved PGA of clear or minimal at week 16. A secondary endpoint was the proportion achieving ≧1 grade of PGA improvement. Safety was assessed throughout the study. Efficacy analyses were intention to treat, with nonresponder imputation used for missing data. Efficacy and safety results were analyzed overall and for each prior-treatment group.

[7] = test system: patients with moderate to severe psoriasis; assay: Adverse events, open-label extension of REVEAL
C-reactive protein (CRP) = assay: C-reactive protein concentrations, post-hoc analysis of REVEAL; format: in vivo, human; conditions: for mean change from baseline in CRP: 16 wks
Experimental: Changes in CRP concentrations were also evaluated in subgroups with or without self-reported psoriatic arthritis (PsA) and with or without obesity (by body mass index [BMI]).

In the case of “Adalimumab: a human anti-TNF mAb, described in U.S. Pat. No. 6,090,382 as D2E7 (HUMIRA, Abbott Laboratories)”, the “PGA “Clear” or “Minimal”” value ([1]; open-label 40 mg weekly, Week 12) is reported as 66%, the “PGA “Clear” or “Minimal”” value ([1]; randomized to 40 mg eow at Week 12, Week 24) is reported as 54.4% and the “PGA scores of “clear” or “minimal” value ([2]; OLE of REVEAL) is reported as 74%. The “PGA “Clear” or “Minimal”” value ([2]; Week 0 of OLE) was 70%, the “PGA “Clear” or “Minimal”” value ([2]; Week 12 of OLE) was 71% and the “PGA “Clear” or “Minimal”” value ([2]; Week 24 of OLE) was 74%. The “Infectious AEs, Patients (%)” value [3] was 18%, the “Serious infectious AE, Patients (%)” value [3] was 1% and the “patients with serious infections” value [3] was 0.9%. The “cases of tuberculosis, demyelinating disorder, lupus-like syndrome, lymphoma, or congestive heart failure” value ([4]; 120-week period) was “No cases”, the “AEs leading to withdrawal, patients” value ([4]; Week 0-24 (n = 92)) was 4 (4.3) n (%) and the “Any AE, patients” value ([4]; Week 0-24 (n = 92)) was 69 (75.0) n (%). The Diarrhea ([4]; Week 0-24 (n = 92)) was 5 (5.4) n (%), the Headache ([4]; Week 0-24 (n = 92)) was 7 (7.6) n (%) and the “Infectious AEs, patients” value ([4]; Week 0-24 (n = 92)) was 28 (30.4) n (%). The “Malignant AEs, patients” value ([4]; Week 0-24 (n = 92)) was 1 (1.1) n (%), the Nasopharyngitis ([4]; Week 0-24 (n = 92)) was 9 (9.8) n (%) and the “Serious AEs, patients” value ([4]; Week 0-24 (n = 92)) was 2 (2.2) n (%). The Sinusitis ([4]; Week 0-24 (n = 92)) was 1 (1.1) n (%), the Hypercholesterolemia ([4]; Week 0-24 (n = 92)) was 4 (4.3) n (%) and the Increased triglycerides ([4]; Week 0-24 (n = 92)) was 7 (7.6) n (%). The “AEs leading to withdrawal, patients” value ([4]; Week 25-48 (n = 78)) was 0 (0.0) n (%), the “Any AE, patients” value ([4]; Week 25-48 (n = 78)) was 33 (42.3) n (%) and the Diarrhea ([4]; Week 25-48 (n = 78)) was 1 (1.3) n (%). For the same substance, the Headache ([4]; Week 25-48 (n = 78)) was 0 (0.0) n (%), the “Malignant AEs, patients” value ([4]; Week 25-48 (n = 78)) was 0 (0.0) n (%) and the Nasopharyngitis ([4]; Week 25-48 (n = 78)) was 5 (6.4) n (%). The “Serious AEs, patients” value ([4]; Week 25-48 (n = 78)) was 0 (0.0) n (%), the Sinusitis ([4]; Week 25-48 (n = 78)) was 1 (1.3) n (%) and the Hypercholesterolemia ([4]; Week 25-48 (n = 78)) was 0 (0.0) n (%). For the same substance, the Increased triglycerides ([4]; Week 25-48 (n = 78)) was 1 (1.3) n (%), the “AEs leading to withdrawal, patients” value ([4]; Week 49-72 (n = 62)) was 0 (0.0) n (%) and the “Any AE, patients” value ([4]; Week 49-72 (n = 62)) was 28 (45.2) n (%). For the same substance, the Diarrhea ([4]; Week 49-72 (n = 62)) was 1 (1.6) n (%), the Headache ([4]; Week 49-72 (n = 62)) was 0 (0.0) n (%) and the “Malignant AEs, patients” value ([4]; Week 49-72 (n = 62)) was 0 (0.0) n (%). For the same substance, the Nasopharyngitis ([4]; Week 49-72 (n = 62)) was 1 (1.6) n (%), the “Serious AEs, patients” value ([4]; Week 49-72 (n = 62)) was 0 (0.0) n (%) and the Sinusitis ([4]; Week 49-72 (n = 62)) was 1 (1.6) n (%). The Hypercholesterolemia ([4]; Week 49-72 (n = 62)) was 1 (1.6) n (%), the Increased triglycerides ([4]; Week 49-72 (n = 62)) was 1 (1.6) n (%) and the “AEs leading to withdrawal, patients” value ([4]; Week 73-96 (n = 55)) was 0 (0.0) n (%). For the same substance, the “Any AE, patients” value ([4]; Week 73-96 (n = 55)) was 27 (49.1) n (%), the Diarrhea ([4]; Week 73-96 (n = 55)) was 0 (0.0) n (%) and the Headache ([4]; Week 73-96 (n = 55)) was 0 (0.0) n (%). For the same substance, the “Malignant AEs, patients” value ([4]; Week 73-96 (n = 55)) was 0 (0.0) n (%), the Nasopharyngitis ([4]; Week 73-96 (n = 55)) was 3 (5.5) n (%) and the “Serious AEs, patients” value ([4]; Week 73-96 (n = 55)) was 0 (0.0) n (%). The Sinusitis ([4]; Week 73-96 (n = 55)) was 3 (5.5) n (%), the Hypercholesterolemia ([4]; Week 73-96 (n = 55)) was 3 (5.5) n (%) and the Increased triglycerides ([4]; Week 73-96 (n = 55)) was 1 (1.8) n (%). The “AEs leading to withdrawal, patients” value ([4]; Week 97-120 (n = 53)) was 0 (0.0) n (%), the “Any AE, patients” value ([4]; Week 97-120 (n = 53)) was 25 (47.2) n (%) and the Diarrhea ([4]; Week 97-120 (n = 53)) was 3 (5.7) n (%). The Headache ([4]; Week 97-120 (n = 53)) was 0 (0.0) n (%), the “Malignant AEs, patients” value ([4]; Week 97-120 (n = 53)) was 0 (0.0) n (%) and the Nasopharyngitis ([4]; Week 97-120 (n = 53)) was 2 (3.8) n (%). The “Serious AEs, patients” value ([4]; Week 97-120 (n = 53)) was 1 (1.9) n (%), the Sinusitis ([4]; Week 97-120 (n = 53)) was 1 (1-9) n (%) and the Hypercholesterolemia ([4]; Week 97-120 (n = 53)) was 1 (1.9) n (%). The Increased triglycerides ([4]; Week 97-120 (n = 53)) was 0 (0.0) n (%), the “PASI 100 Response Rates, % Patients” value ([5]; Week 4, double-blind) was 0.9% and the “PASI 100 Response Rates, % Patients” value ([5]; Week 8, double-blind) was 7.1* %. For the same substance, the “PASI 100 Response Rates, % Patients” value ([5]; Week 12, double-blind) was 14.4* %, the “PASI 100 Response Rates, % Patients” value ([5]; Week 16, double-blind) was 20* % and the “Mean Percentage PASI Improvement During Period B” value ([5]; Week 16) was 91.9%. The “PASI 100 Response Rates, % Patients” value ([5]; Week 24, open-label, pooled Period B and OLE) was 22.5* %, the “Mean Percentage PASI Improvement During Period B” value ([5]; Week 24) was 91.2% and the “Mean Percentage PASI Improvement During Period B” value ([5]; Week 33) was 89.3%. The “patients with loss of adequate response” value [5] was 4.9* %, the “patients with loss of adequate response” value ([5]; listed as adalimumab) was 5% and the “≧1 grade improvement in PGA” value ([6]; all patients) was 75.0%. For the same substance, the “PGA of clear or minimal” value ([6]; prior ETN group) was 48.8%, the “≧1 grade improvement in PGA” value ([6]; prior ETN group) was 72.0% and the “PGA of clear or minimal” value ([6]; prior MTX group) was 61.0%. For the same substance, the “≧1 grade improvement in PGA” value ([6]; prior MTX group) was 78.0%, the “PGA of clear or minimal” value ([6]; prior NB-UVB group) was 48.3% and the “≧1 grade improvement in PGA” value ([6]; prior NB-UVB group) was 79.3%. For the same substance, the “AEs leading to withdrawal, Patients (%)” value ([7]; First 24 weeks of OLE) was 1%, the “Any AE, Patients (%)” value ([7]; First 24 weeks of OLE) was 47% and the “Lymphoma, Patients (%)” value ([7]; First 24 weeks of OLE) was 0%. The “Malignancy, Patients (%)” value ([7]; First 24 weeks of OLE) was 1%, the “Non-melanoma skin cancer, Patients (%)” value ([7]; First 24 weeks of OLE) was 0% and the “Serious AE, Patients (%)” value ([7]; First 24 weeks of OLE) was 3%. The “Nasopharyngitis, Patients (%)” value ([7]; First 24 weeks of OLE, AEs occurring ≧5% of patients) was 5%, the “patients with serious adverse events” value ([7]; between Months 12-18) was 2.6% and the “mean change from baseline in CRP” value (C-reactive protein (CRP); Ps group (without self-reported PsA)) was −1.3. For the same substance, the “patients with elevated CRP at baseline who had a normal CRP” value (C-reactive protein (CRP); Ps group, Wk 16) was 64.6%, the “mean change from baseline in CRP” value (C-reactive protein (CRP); PsA group) was −6.3 and the “patients with elevated CRP at baseline who had a normal CRP” value (C-reactive protein (CRP); PsA group, Week 16) was 71.9%. The “patients changed from elevated CRP at baseline to a normal CRP” value (C-reactive protein (CRP); obese patients, Week 16) was 64.1%.
